Results published in PMC8764033, “Single-molecule analysis of specificity and multivalency in binding of short linear substrate motifs to the APC/C” (Nature Communications, 2022).
“Also recorded” adds a separate entry of the source.

Legend:
[1] = tested on: APC/C^Apc10-4A, Cdc20; assay: SMOR assay, yeast APC/C^Apc10-4A, Cdc20; type: binding, Saccharomyces cerevisiae
Description: Yeast strains were derivatives of W303 and are listed in Supplementary Table 2. For APC/C purification, we used a strain carrying Cdc16-TAP and lacking Cdh1 (DOM1126); in most experiments, the strain also carried Apc1-GFP (NHY13). Yeast were grown in YPD media to OD600 = 0.8, collected and flash-frozen. Cells were lysed by bead beating in lysis buffer A (50 mM HEPES pH 7.5, 150 mM KCl, 10% glycerol, 0.2% Triton X-100, 63 µM B-glycerophosphate, 48 µM sodium fluoride, 1 µg ml^−1 pepstatin A, 1 µg ml^−1 leupeptin, 1 µg ml^−1 aprotinin, 1 mM PMSF, 1 mM DTT, 0.5 mM EDTA) and APC/C was purified using magnetic IgG beads. The beads were washed using wash buffer A (20 mM HEPES pH 7.5, 150 mM KCl, 10% Glycerol, 0.05% Triton X-100). After incubation with purified Cdh1 or Cdc20, the APC/C was cleaved off the beads with TEV protease in wash buffer A with 0.05% Tween-20 (for single-molecule studies) or 0.05% Triton X-100 (for ensemble assays such as ubiquitylation) and used immediately.
For all SMOR experiments, 24 × 50 mm high precision glass coverslips (Bioscience Tools) and drilled microscope slides were passivated with a combination of PEG and PEG-biotin (coverslips) or PEG only (slides) following a previously published protocol for SiMPull[31]. Reaction chambers (~20 µl) were created using double-sided tape and epoxy. Protein was immobilized on the surface with 0.2 mg ml^−1 NeutrAvidin in buffer C (20 mM HEPES pH 7.5, 150 mM KCl, 10% glycerol, 0.05% Tween-20, 1 mM DTT). Excess NeutrAvidin was washed away and incubated with either biotin-conjugated mouse monoclonal anti-Strep-Tag II antibody (LSBio, Cat. No. LS-C203632-100) or biotin-conjugated rabbit polyclonal anti-GFP antibody (Rockland, Cat. No. 600-406-215) diluted in buffer C + BSA (0.1 mg ml^−1; Molecular Biology Grade Bovine Serum Albumin). Activator WD40 and activated APC/C (typically 50 µl containing about 65 ng APC/C, of which only a small fraction is immobilized on the glass) were immobilized using anti-Strep-Tag II, while APC/C alone was immobilized with anti-GFP. SMOR results were similar when performed in the buffer (wash buffer B) used in polarization anisotropy.
To capture dynamic protein–protein interactions, dye-labeled substrate diluted in buffer C + BSA was added to the chamber containing immobilized proteins. Interactions were imaged by TIRF microscopy as described below. For optimal signal-to-noise ratio, peptide concentration was no greater than 1 nM. […]
Microscopy was performed with a Nikon Eclipse TE2000-E with Perfect Focus with a 100 × 1.49na oil, Apo TIRF DIC N2, 0.13-0.2, WD0.12 objective. Movies were recorded using the Andor iXon DU-897E-CSO. […]

[2] = tested on: APC/C; assay: APC/C ubiquitylation assay; type: biochemical, yeast; settings: listed as Hsl1^Halo
Description: APC/C ubiquitylation assays were performed as described previously. In short, APC/C was purified from yeast as described above using magnetic IgG beads and activated with a purified Cdh1 or Cdc20 activator. For all APC/C ubiquitylation assays, substrates were produced by in vitro translation with ^35S-Methionine (see Supplementary Table 5 for plasmids). Substrates were purified using magnetic IgG beads. E1 and E2 (Ubc4) were expressed in E. coli and purified as described previously[25],[42]. E2 was charged at 37 °C for 30 min (reaction contained 0.2 mg ml^−1 Uba1, 2 mg ml^−1 Ubc4, 2 mg ml^−1 methylated ubiquitin from Boston Biochem #Y-501, and 1 mM ATP). Charged E2 was added to a reaction containing activated APC/C and substrate. Reaction products were analyzed by SDS-PAGE and Phosphorimaging on a Typhoon 9400 Imager. […]

[3] = tested on: APC/C; settings: APC/C^Cdc20 vs APC/C^Cdh1; cited from earlier work
Description: We find that the yeast securin ...

Sequence of APC/C^Apc10-4A, Cdc20 (P26309 whole entry): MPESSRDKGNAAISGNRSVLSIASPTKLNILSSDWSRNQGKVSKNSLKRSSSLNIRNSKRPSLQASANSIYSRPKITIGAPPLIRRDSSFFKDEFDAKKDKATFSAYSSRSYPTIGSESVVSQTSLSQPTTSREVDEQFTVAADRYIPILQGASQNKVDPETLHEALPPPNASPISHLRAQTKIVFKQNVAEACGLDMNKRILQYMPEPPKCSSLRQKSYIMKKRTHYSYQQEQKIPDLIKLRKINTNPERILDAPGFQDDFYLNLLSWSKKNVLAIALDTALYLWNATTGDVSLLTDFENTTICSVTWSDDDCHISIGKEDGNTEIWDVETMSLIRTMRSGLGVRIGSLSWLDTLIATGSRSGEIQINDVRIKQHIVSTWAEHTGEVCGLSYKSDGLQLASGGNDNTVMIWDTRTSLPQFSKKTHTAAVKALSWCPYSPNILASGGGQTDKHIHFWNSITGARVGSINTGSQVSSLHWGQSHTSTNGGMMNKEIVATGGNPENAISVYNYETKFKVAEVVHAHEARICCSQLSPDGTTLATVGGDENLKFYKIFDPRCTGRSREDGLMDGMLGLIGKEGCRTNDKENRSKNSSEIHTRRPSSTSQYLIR

B1: Hsl1^Halo KEN & D: Hsl1 fragment (amino acids 667–872) with C-terminal HaloTag, JF549-labeled (protein)
chain: QNSASKRSLYSLQSISKRSLNLNDLLVFDDPLPSKKPASENVNKSEPHSLESDSDFEILCDQILFGNALDRILEEEEDNEKERDTQRQRQNDTKSSADTFTISGVSTNKENEGPEYPTKIEKNQFNMSYKPSENMSGLSSFPIFEKENTLSSSYLEEQKPKRAALSDITNSFNKMNKQEGMRIEKKIQREQLQKKNDRPSPLKPIQ
modifications: JF549 or JF646 dye covalently bound to the HaloTag; left off: HaloTag, C-terminal, kept | TAP, C-terminal, cleaved
notes: Hsl1 fragment (amino acids 667–872) with C-terminal HaloTag, JF549-labeled
With B1 the “binding (in words)” value [1] was “the Apc10-4A mutations only slightly reduced Hsl1 dwell time with APC/C^Cdc20; also recorded: only slightly reduced by mutation of Apc10”, the “Dwell Time” value ([1]; Supplementary Table 1, replicate 1 (movie listed first)) was 0.449 ± 0.014 s and the “Dwell Time” value ([1]; Supplementary Table 1, replicate 2 (movie listed second)) was 0.372 ± 0.027 s. The mean dwell time ([1]; representative of two independent experiments, ± SE, ligand ≤1 nM, buffer C + BSA) was 0.449 s, the “ubiquitylation (in words)” value [2] was “HaloTag does not affect ubiquitylation or binding” and the “processivity of ubiquitylation (in words)” value [3] was “more processively modified by APC/C^Cdh1”.
